13 molecules from publication PMC10397247 can be followed below.

Like-named read-outs stand apart in the source and are kept apart here.

Assay [1] deals with T1, 4H454-AA.
T1 chain: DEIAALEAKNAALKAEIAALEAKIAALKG
Kind of assay: two-hybrid library CCmax.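 Also: natural log of median RNA to DNA barcode read ratio; higher means stronger binding.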 The settings on record: mean of both orientations.

Assay [2] deals with T2, 4H993-AA.
T2 chain: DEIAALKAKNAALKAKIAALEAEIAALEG
Kind of assay: two-hybrid library CCmax.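 Also: natural log of median RNA to DNA barcode read ratio; higher means stronger binding.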

Assay [3] addresses T3, 4H429-AA.
T3 chain: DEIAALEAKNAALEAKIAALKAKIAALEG
The assay can be described thus: two-hybrid library CCmax.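 Also: natural log of median RNA to DNA barcode read ratio; higher means stronger binding.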

Assay [4] concerns the target T4, 4H717-AA.
T4 chain: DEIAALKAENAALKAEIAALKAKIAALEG
Kind of assay: two-hybrid library CCmax.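 Also: natural log of median RNA to DNA barcode read ratio; higher means stronger binding.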 The conditions noted are these: mean of both orientations.

For assay [5], the target named is T5, 4H794-AA.
T5 chain: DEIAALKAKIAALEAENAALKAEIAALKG
Kind of assay: two-hybrid library CCmax.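 Also: natural log of median RNA to DNA barcode read ratio; higher means stronger binding.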 The settings on record: mean of both orientations.

For assay [6], the target named is T6, 4H780-AA.
T6 chain: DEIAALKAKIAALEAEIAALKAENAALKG
The assay can be described thus: two-hybrid library CCmax.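 Also: natural log of median RNA to DNA barcode read ratio; higher means stronger binding.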 The conditions noted are these: mean of both orientations.

In assay [7] the target is T7, 4H881-AA.
T7 chain: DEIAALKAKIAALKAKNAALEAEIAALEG
The assay can be described thus: two-hybrid library CCmax. The conditions noted are these: mean of both orientations.

The target of assay [8] is T8, 4H605-AA.
T8 chain: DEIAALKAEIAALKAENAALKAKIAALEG
The assay can be described thus: two-hybrid library CCmax.

Assay [9] has as its target T9, 4H566-AA.
T9 chain: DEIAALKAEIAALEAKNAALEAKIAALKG
The assay can be described thus: two-hybrid library CCmax. The conditions noted are these: mean of both orientations.

The target of assay [10] is T10, 4H906-AA.
T10 chain: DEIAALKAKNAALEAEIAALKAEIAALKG
Kind of assay: two-hybrid library CCmax. The settings on record: mean of both orientations.

For assay [11], the target named is T11, 4H678-AA.
T11 chain: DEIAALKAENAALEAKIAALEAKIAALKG
Kind of assay: two-hybrid library CCmax. The settings on record: mean of both orientations.

Assay [12] deals with T12, 4H3921-AA.
T12 chain: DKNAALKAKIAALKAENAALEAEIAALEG
Kind of assay: two-hybrid library CCmax.

Assay [13] addresses T13, 4H675-AA.
T13 chain: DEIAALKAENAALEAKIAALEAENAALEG
The assay can be described thus: two-hybrid library CCmax.

Assay [14] concerns the target T14, 4H971-AA.
T14 chain: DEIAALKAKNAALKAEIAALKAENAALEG
The assay can be described thus: two-hybrid library CCmax.

The target of assay [15] is T15, 4H485-AA.
T15 chain: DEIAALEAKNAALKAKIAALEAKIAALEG
The assay can be described thus: two-hybrid library CCmax.

Assay [16] addresses T16, 4H94-AA.
T16 chain: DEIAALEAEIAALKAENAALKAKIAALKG
Kind of assay: two-hybrid library CCmax. The conditions noted are these: mean of both orientations.

Assay [17] has as its target T17, 4H745-AA.
T17 chain: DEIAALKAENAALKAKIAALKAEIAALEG
Kind of assay: two-hybrid library CCmax.

For assay [18], the target named is T18, 4H850-AA.
T18 chain: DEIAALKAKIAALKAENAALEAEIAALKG
Kind of assay: two-hybrid library CCmax. The conditions noted are these: mean of both orientations.

Assay [19] has as its target T19, 4H458-AA.
T19 chain: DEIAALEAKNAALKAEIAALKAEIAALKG
The assay can be described thus: two-hybrid library CCmax.

Assay [20] concerns the target T20, 4H930-AA.
T20 chain: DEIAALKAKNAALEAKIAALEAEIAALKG
Kind of assay: two-hybrid library CCmax. The settings on record: mean of both orientations.

The target of assay [21] is T21, 4H570-AA.
T21 chain: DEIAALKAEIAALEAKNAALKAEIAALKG
The assay can be described thus: two-hybrid library CCmax. The settings on record: mean of both orientations.

In assay [22] the target is T22, 4H3865-AA.
T22 chain: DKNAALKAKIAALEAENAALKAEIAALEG
Kind of assay: two-hybrid library CCmax. The settings on record: mean of both orientations.

The target in assay [23] is T23, 4H710-AA.
T23 chain: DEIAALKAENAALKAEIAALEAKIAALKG
The assay can be described thus: two-hybrid library CCmax. The conditions noted are these: mean of both orientations.

Assay [24] deals with T24, 4H3753-AA.
T24 chain: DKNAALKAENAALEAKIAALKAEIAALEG
The assay can be described thus: two-hybrid library CCmax.

Assay [25] has as its target T25, 4H909-AA.
T25 chain: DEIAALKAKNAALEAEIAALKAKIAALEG
Kind of assay: two-hybrid library CCmax. The conditions noted are these: mean of both orientations.

Assay [26] addresses T26, 4H797-AA.
T26 chain: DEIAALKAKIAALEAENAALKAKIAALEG
Kind of assay: two-hybrid library CCmax. The conditions noted are these: mean of both orientations.

Assay [27] addresses T27, 4H891-AA.
T27 chain: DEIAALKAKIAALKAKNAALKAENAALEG
The assay can be described thus: two-hybrid library CCmax. The settings on record: mean of both orientations.

Assay [28] concerns the target T28, 4H536-AA.
T28 chain: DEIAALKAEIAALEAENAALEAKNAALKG
Kind of assay: two-hybrid library CCmax. The settings on record: mean of both orientations.

In assay [29] the target is T29, 4H629-AA.
T29 chain: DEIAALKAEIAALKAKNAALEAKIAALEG
The assay can be described thus: two-hybrid library CCmax.

The target in assay [30] is T30, 4H48-AA.
T30 chain: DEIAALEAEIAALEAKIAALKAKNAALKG
The assay can be described thus: two-hybrid library CCmax. The settings on record: mean of both orientations.

Assay [31] has as its target T31, 4H656-AA.
T31 chain: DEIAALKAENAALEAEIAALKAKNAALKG
The assay can be described thus: two-hybrid library CCmax.

Assay [32] has as its target T32, 4H3844-AA.
T32 chain: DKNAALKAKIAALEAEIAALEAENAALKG
The assay can be described thus: two-hybrid library CCmax.

For assay [33], the target named is T33, 4H906-bA.
T33 chain: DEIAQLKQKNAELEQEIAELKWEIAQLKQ
The assay can be described thus: two-hybrid library CCNG1.

Assay [34] deals with T34, 4H918-bN.
T34 chain: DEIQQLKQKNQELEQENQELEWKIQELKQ
The assay can be described thus: two-hybrid library CCNG1.

Assay [35] deals with T35, 4H3655-AA.
T35 chain: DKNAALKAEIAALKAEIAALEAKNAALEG
Kind of assay: two-hybrid library CCmax.

Assay [36] has as its target T36, 4H982-AA.
T36 chain: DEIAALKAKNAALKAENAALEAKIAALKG
Kind of assay: two-hybrid library CCmax.

Assay [37] has as its target T37, 4H906-bH.
T37 chain: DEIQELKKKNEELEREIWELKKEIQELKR
Kind of assay: two-hybrid library CCNG1.

B1: 4H3921-AA (peptide)
chain: DKNAALKAKIAALKAENAALEAEIAALEG
As to B1, the interaction score in assay [1] is 0.521; in assay [2] (mean of both orientations), 0.874; in assay [3] (mean of both orientations) it was -0.196; in assay [4] it was -1.37; in assay [5], -0.924; in [6], -1.71. Besides, the interaction score in assay [7] is -0.834; in assay [8] (mean of both orientations) it was -0.532; in assay [9] it was 0.811; in [10], -1.62; in assay [11] it was -1.4; in assay [12] it was -1.67.

B2: 4H675-AA (peptide)
chain: DEIAALKAENAALEAKIAALEAENAALEG
As to B2, the interaction score in [13] was -1.72; in assay [14] (mean of both orientations), 0.0439.

B3: 4H3753-AA (peptide)
chain: DKNAALKAENAALEAKIAALKAEIAALEG
As for B3, the interaction score in assay [15] (mean of both orientations) is 1.4; in assay [16], -1.45; in assay [17] (mean of both orientations), -0.67; in assay [18] it was -2; in [19] (mean of both orientations), 1.56; in [20], -1.43. Besides, the interaction score in assay [21] was -1; in assay [22], -1.43; in assay [23], 2.05; in assay [24] it was -0.536; in [25], -0.932; in [26], -1.42. Moreover, the interaction score in [27] was -1.97; in [28], -1.2; in assay [29] (mean of both orientations) it was -1.7.

B4: 4H485-AA (peptide)
chain: DEIAALEAKNAALKAKIAALEAKIAALEG
Consider B4, for which the interaction score in assay [15] is 1.06; in [16], -1.46; in assay [17], 1.2; in assay [18], 1.97; in assay [20], -0.103; in [21] it was -1.69. Moreover, the interaction score in assay [23] is 1.71; in assay [25], -0.153; in assay [26], -0.968; in assay [27] it was -2.05; in assay [28] it was -1.29; in assay [29] (mean of both orientations), -1.15.

B5: 4H429-AA (peptide)
chain: DEIAALEAKNAALEAKIAALKAKIAALEG
Regarding B5, the interaction score in assay [1] was 1.83; in assay [2] it was 1.92; in assay [3] it was 0.468; in assay [4], -0.775; in [5], -0.809; in [6], -1.7. Further, the interaction score in assay [7] is -0.143; in assay [8], -1.54; in assay [30], -0.728; in assay [9], 0.0626; in assay [10] it was -0.239; in [11], 1.26.

B6: 4H656-AA (peptide)
chain: DEIAALKAENAALEAEIAALKAKNAALKG
B6: the results for the interaction score in assay [13] (mean of both orientations), in assay [14] (mean of both orientations) and in [31] were 0.797, 1.93 and 0.334, respectively.

B7: 4H3844-AA (peptide)
chain: DKNAALKAKIAALEAEIAALEAENAALKG
Turning to B7, the interaction score was -0.212 in assay [1]; -1.76 in assay [2] (mean of both orientations); -0.665 in assay [3] (mean of both orientations); -1.65 in assay [4]; 0.661 in assay [32]; -1.33 in assay [5]. Further, the interaction score in [6] is 0.995; in assay [7], -0.992; in assay [8] (mean of both orientations), -1.48; in assay [30] it was 1.16; in [31], -1.07; in assay [9] it was -1.77. For the same molecule, the interaction score was -1.43 in assay [10], 0.663 in [11] and -1.65 in assay [12] (mean of both orientations).

B8: 4H906-bA (peptide)
chain: DEIAQLKQKNAELEQEIAELKWEIAQLKQ
With B8, the interaction score in assay [33] was 0.95; in assay [34], -0.333.

B9: 4H3655-AA (peptide)
chain: DKNAALKAEIAALKAEIAALEAKNAALEG
For the molecule B9, the interaction score was -0.827 in assay [1]; -1.32 in [2] (mean of both orientations); -1.13 in assay [3] (mean of both orientations); -1.27 in assay [4]; -1.26 in [32] (mean of both orientations); -1.61 in assay [5]. Moreover, the interaction score was -1.83 in assay [6]; -0.202 in assay [7]; -1.25 in assay [8] (mean of both orientations); 0.736 in assay [30]; -1.03 in assay [9]; -1.03 in [10]. For the same molecule, the interaction score was 0.24 in assay [35], -0.956 in assay [11] and -1.55 in [12] (mean of both orientations).

B10: 4H982-AA (peptide)
chain: DEIAALKAKNAALKAENAALEAKIAALKG
On to B10, for which the interaction score in assay [36] came to 0.123.

B11: 4H971-AA (peptide)
chain: DEIAALKAKNAALKAEIAALKAENAALEG
In assay [14], B11 came in with an interaction score of -0.816.

B12: 4H458-AA (peptide)
chain: DEIAALEAKNAALKAEIAALKAEIAALKG
For B12, the interaction score in assay [15] (mean of both orientations) is -1.76; in [16], -1.35; in [17] (mean of both orientations), 1.1; in assay [18], 1.08; in assay [19] it was 1.87; in [20], -0.663. Also, the interaction score in assay [21] was -0.947; in [23], 1.06; in [25], -0.173; in assay [26], -1.44; in assay [27], -1.67; in assay [28], -1.46. The molecule also returned an interaction score in [29] of -1.64.

B13: 4H906-bH (peptide)
chain: DEIQELKKKNEELEREIWELKKEIQELKR
B13: the interaction score in assay [37] came to 0.905.
